Drawing on article PMC3021753, this text covers β-Galactosidase activity (Miller Units) for 2 molecules.

Assay [1] addresses MreB fused to the GAL4 DNA binding domain (pGBD-C1) (E. coli), P0A9X4. The assay is described as follows: two-hybrid. As to conditions: remark: other sources report otherwise.
Assay [2] deals with T1, YeeV fused to the GAL4 DNA binding domain (pGBD-C1) (E. coli), P64524.
T1 chain: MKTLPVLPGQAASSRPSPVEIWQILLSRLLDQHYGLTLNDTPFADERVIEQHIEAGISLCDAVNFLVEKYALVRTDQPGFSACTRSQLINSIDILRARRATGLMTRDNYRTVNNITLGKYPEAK
The assay is described as follows: two-hybrid. As to conditions: remark: other sources report otherwise.

B1: FtsZ fused to the GAL4 activation domain (pGAD-C1), P0A9A6 1-383 (natural protein)
chain: MFEPMELTNDAVIKVIGVGGGGGNAVEHMVRERIEGVEFFAVNTDAQALRKTAVGQTIQIGSGITKGLGAGANPEVGRNAADEDRDALRAALEGADMVFIAAGMGGGTGTGAAPVVAEVAKDLGILTVAVVTKPFNFEGKKRMAFAEQGITELSKHVDSLITIPNDKLLKVLGRGISLLDAFGAANDVLKGAVQGIAELITRPGLMNVDFADVRTVMSEMGYAMMGSGVASGEDRAEEAAEMAISSPLLEDIDLSGARGVLVNITAGFDLRLDEFETVGNTIRAFASDNATVVIGTSLDPDMNDELRVTVVATGIGMDKRPEITLVTNKQVQQPVMDRYQQHGMAPLTQEQKPVAKVVNDNAPQTAKEPDYLDIPAFLRKQAD
In the case of B1, the β-Galactosidase activity (Miller Units) in assay [1] is 345 Miller Units.

B2: MreB fused to the GAL4 activation domain, P0A9X4 1-347 (natural protein)
chain: MLKKFRGMFSNDLSIDLGTANTLIYVKGQGIVLNEPSVVAIRQDRAGSPKSVAAVGHDAKQMLGRTPGNIAAIRPMKDGVIADFFVTEKMLQHFIKQVHSNSFMRPSPRVLVCVPVGATQVERRAIRESAQGAGAREVFLIEEPMAAAIGAGLPVSEATGSMVVDIGGGTTEVAVISLNGVVYSSSVRIGGDRFDEAIINYVRRNYGSLIGEATAERIKHEIGSAYPGDEVREIEVRGRNLAEGVPRGFTLNSNEILEALQEPLTGIVSAVMVALEQCPPELASDISERGMVLTGGGALLRNLDRLLMEETGIPVVVAEDPLTCVARGGGKALEMIDMHGGDLFSEE
In assay [2], B2 yielded a β-Galactosidase activity (Miller Units) of 98 Miller Units.
